Measured values: patent US20200255543A1 (ROCKEFELLER UNIVERSITY, published 2020)

What was measured:
recombinant mouse MERTK [1] = target: T1, recombinant mouse MERTK (mouse, UniProt Q60805 23-496, limits assumed); assay: biolayer interferometry, global fit; mouse MERTK
T1 construct: Analyte in solution in biolayer interferometry; also called msMer; murine MERTK
T1 sequence (looked up): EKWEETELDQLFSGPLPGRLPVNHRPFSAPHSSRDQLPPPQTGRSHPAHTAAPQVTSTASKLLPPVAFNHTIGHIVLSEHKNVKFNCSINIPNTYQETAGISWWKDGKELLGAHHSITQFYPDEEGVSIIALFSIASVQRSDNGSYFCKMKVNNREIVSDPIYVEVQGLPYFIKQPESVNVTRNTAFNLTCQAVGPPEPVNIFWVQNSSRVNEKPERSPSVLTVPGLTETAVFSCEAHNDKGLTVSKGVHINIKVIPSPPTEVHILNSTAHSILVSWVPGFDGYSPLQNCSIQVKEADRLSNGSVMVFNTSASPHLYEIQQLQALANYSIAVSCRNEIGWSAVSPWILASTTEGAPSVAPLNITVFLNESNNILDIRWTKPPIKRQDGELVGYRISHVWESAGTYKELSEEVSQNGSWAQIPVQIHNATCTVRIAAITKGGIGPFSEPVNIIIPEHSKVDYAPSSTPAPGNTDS
Protocol: (§1) FIG. 8: M19 binds to murine MERTK with high affinity. A diagram showing antibody binding kinetics for M19 (Mer-M19) against murine MERTK (msMer) using biolayer interferometry. Purified M19 was loaded on an AMQ sensor at a concentration of 1 microgram/mL to test binding against analytes in solution. All analytes were prepared at 5 nM with a 2-fold dilution series for a total of 7 concentrations. Kinetic fits were calculated using a 1:1 model, with Local fits for each concentration as well as an overall Global fit.

recombinant human MERTK [2] = target: T2, recombinant human MERTK (human, UniProt Q12866 21-505, limits assumed); assay: biolayer interferometry, M19 loaded on AMQ sensor at 1 ug/mL, hMer in solution at 5 nM, local 1:1 fit
T2 construct: Analyte in solution in biolayer interferometry; also called hMer
T2 sequence: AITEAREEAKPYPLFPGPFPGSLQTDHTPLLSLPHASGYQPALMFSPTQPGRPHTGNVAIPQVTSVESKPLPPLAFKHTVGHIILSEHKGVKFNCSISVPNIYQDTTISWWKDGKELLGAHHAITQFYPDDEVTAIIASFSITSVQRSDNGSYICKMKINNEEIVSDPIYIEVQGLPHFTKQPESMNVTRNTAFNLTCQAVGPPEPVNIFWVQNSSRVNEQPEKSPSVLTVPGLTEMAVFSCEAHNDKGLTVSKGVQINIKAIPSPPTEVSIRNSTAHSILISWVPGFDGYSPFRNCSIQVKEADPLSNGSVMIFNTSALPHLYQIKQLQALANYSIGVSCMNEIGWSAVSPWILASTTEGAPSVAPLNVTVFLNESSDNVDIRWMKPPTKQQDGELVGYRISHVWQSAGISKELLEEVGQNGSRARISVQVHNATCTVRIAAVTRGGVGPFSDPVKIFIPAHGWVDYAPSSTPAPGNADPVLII
Protocol: as §1, with “7:” for “8:”, “human” for “murine”, “(hMer)” for “(msMer)”, “global” for “Global”
(§2) To characterize the binding affinity of M19 antibody against recombinant human and mouse MERTK, biomolecular interaction analysis was performed using biolayer interferometry (FIG. 7 and FIG. 8). Binding was observed between M19 and both mouse and human MERTK.

recombinant mouse MERTK [3] = target: T1, recombinant mouse MERTK; assay: biolayer interferometry, M19 loaded on AMQ sensor at 1 ug/mL, msMer in solution at 5 nM, local 1:1 fit
Protocol: as §1, §2

recombinant mouse MERTK [4] = target: T1, recombinant mouse MERTK; assay: biolayer interferometry, M19 loaded on AMQ sensor, msMer analyte from 5 nM in 2-fold dilutions, 1:1 model, global fit
Protocol: as §1

recombinant human MERTK [5] = target: T2, recombinant human MERTK; assay: biolayer interferometry, M19 loaded on AMQ sensor at 1 ug/mL, hMer in solution at 0.625 nM, local 1:1 fit
Protocol: as §1, with “7:” for “8:”, “human” for “murine”, “(hMer)” for “(msMer)”, “global” for “Global”
as §2

recombinant human MERTK [6] = target: T2, recombinant human MERTK; assay: biolayer interferometry, M19 loaded on AMQ sensor at 1 ug/mL, hMer in solution at 0.0781 nM, local 1:1 fit
Protocol: as §1, with “7:” for “8:”, “human” for “murine”, “(hMer)” for “(msMer)”, “global” for “Global”
as §2

recombinant human MERTK [7] = target: T2, recombinant human MERTK; assay: biolayer interferometry, M19 loaded on AMQ sensor at 1 ug/mL, hMer in solution at 0.3125 nM, local 1:1 fit
Protocol: as §1, with “7:” for “8:”, “human” for “murine”, “(hMer)” for “(msMer)”, “global” for “Global”
as §2

recombinant mouse MERTK [8] = target: T1, recombinant mouse MERTK; assay: biolayer interferometry, M19 loaded on AMQ sensor at 1 ug/mL, msMer in solution at 0.625 nM, local 1:1 fit
Protocol: as §1, §2

recombinant mouse MERTK [9] = target: T1, recombinant mouse MERTK; assay: biolayer interferometry, M19 loaded on AMQ sensor at 1 ug/mL, msMer in solution at 0.0781 nM, local 1:1 fit
Protocol: as §1, §2

recombinant mouse MERTK [10] = target: T1, recombinant mouse MERTK; assay: biolayer interferometry, M19 loaded on AMQ sensor at 1 ug/mL, msMer in solution at 0.3125 nM, local 1:1 fit
Protocol: as §1, §2

B1: monoclonal antibody M19 (antibody, V domains shown)
VH: EVQLEESGPDLKKPGETVKISCKASNYTFTDYSMHWVKQAPGKGLKWVGWINTDTGEPTYADDFKGRFAFSLETSASTAYLQINNLKNEDTATYFCARWFGAMDYWGQGTSVTVSS
VL: DIVITQSHKFMSTSVGDRVSITCKASQDVTNVVAWYQQKPGQSPKLLIYSASYRYTGVPDRFTGSGSGTDFTFTISSVQAEDLAVYYCQQYYRTPRTFGGGTKLEIKR
notes: Mouse hybridoma monoclonal antibody; Hybridoma supernatant was used in the ELISA screen, purified antibody in biolayer interferometry; also called Mer-M19
- Kd (recombinant mouse MERTK [1]): ~0.3 nM
- Kd (recombinant human MERTK [2]): 0.246 nM
- koff (recombinant human MERTK [2]): 0.000951 s⁻¹
- kon (recombinant human MERTK [2]): 3.86e+06 M⁻¹ s⁻¹
- Kd (recombinant mouse MERTK [3]): 0.354 nM
- koff (recombinant mouse MERTK [3]): 0.00133 s⁻¹
- kon (recombinant mouse MERTK [3]): 3.77e+06 M⁻¹ s⁻¹
- Kd (recombinant mouse MERTK [4]): 0.305 nM
- Kd (recombinant human MERTK [5]): 0.155 nM
- koff (recombinant human MERTK [5]): 0.00079 s⁻¹
- kon (recombinant human MERTK [5]): 5.11e+06 M⁻¹ s⁻¹
- Kd (recombinant human MERTK [6]): 0.0765 nM
- koff (recombinant human MERTK [6]): 0.000934 s⁻¹
- kon (recombinant human MERTK [6]): 1.22e+07 M⁻¹ s⁻¹
- Kd (recombinant human MERTK [7]): 0.128 nM
- koff (recombinant human MERTK [7]): 0.000968 s⁻¹
- kon (recombinant human MERTK [7]): 7.57e+06 M⁻¹ s⁻¹
- Kd (recombinant mouse MERTK [8]): 0.198 nM
- koff (recombinant mouse MERTK [8]): 0.00137 s⁻¹
- kon (recombinant mouse MERTK [8]): 6.92e+06 M⁻¹ s⁻¹
- Kd (recombinant mouse MERTK [9]): 0.0472 nM
- koff (recombinant mouse MERTK [9]): 0.00108 s⁻¹
- kon (recombinant mouse MERTK [9]): 2.29e+07 M⁻¹ s⁻¹
- Kd (recombinant mouse MERTK [10]): 0.115 nM
- koff (recombinant mouse MERTK [10]): 0.00106 s⁻¹
- kon (recombinant mouse MERTK [10]): 9.23e+06 M⁻¹ s⁻¹
